Measured values as given in patent publication US20130326645.

Experiments:
Assay in all cases: cell_activity
ZFN 29730 (synthetic) = conditions: pair 29732/29730, donor pDAS000152 10:1, A-genome (B 6306, D 7911), wheat SEC protoplasts
ZFN 25712 (synthetic) = conditions: pair 25712/25713, maize
ZFN 25686 (synthetic) = conditions: pair 25686/25687, maize
ZFN 25717 (synthetic) = conditions: pair 25716/25717, maize; text states 380 times control
ZFN 25687 (synthetic) = conditions: pair 25686/25687, maize
ZFN 25713 (synthetic) = conditions: pair 25712/25713, maize
ZFN 29732 (synthetic) = conditions: pair 29732/29730, donor pDAS000152 10:1, A-genome (B 6306, D 7911), wheat SEC protoplasts
ZFN 25688 (synthetic) = conditions: pair 25688/25689, maize
ZFN 25716 (synthetic) = conditions: pair 25716/25717, maize; text states 380 times control
ZFN 25689 (synthetic) = conditions: pair 25688/25689, maize

Q: For “AGGCAGCACGTGCTCCTGATGCGGGACT (double strand) [29730 site]”, which activity (ppm NHEJ editing) (ZFN 29730 (synthetic)) is on record?
A: 6720

Q: For “ATCGGGCATCGGCGACTGATGAGCCTTG (double strand) [25712 site]”, which activity (% of IPPK2 ZFN activity) (ZFN 25712 (synthetic)) is on record?
A: 69

Q: With “CACAACAAGACTGCGGGTTCGGTGGCGC (double strand) [25686 site]” as the sequence, how does the activity (% of IPPK2 ZFN activity) (ZFN 25686 (synthetic)) read?
A: 32

Q: How did the activity (% of IPPK2 ZFN activity as printed) (ZFN 25717 (synthetic)) turn out when “CGGAAGCGGATGGCCCGCTTCTTTAGAA (double strand) [25717 site]” was run?
A: 380

Q: How did the activity (% of IPPK2 ZFN activity) (ZFN 25687 (synthetic)) turn out when “GATAGGTGGCAGTGGCAGTGGCACTGGC (double strand) [25687 site]” was run?
A: 32

Q: For “GATCAACGGAAGCGGATGGCCCGCTTCT (double strand) [25713 site]”, which activity (% of IPPK2 ZFN activity) (ZFN 25713 (synthetic)) is on record?
A: 69

Q: With “GATCCCAAGCGGTGGTGCTTTCAAGGAC (double strand) [29732 site]” as the sequence, how does the activity (ppm NHEJ editing) (ZFN 29732 (synthetic)) read?
A: 6720

Q: “TATCGGCACAACAAGACTGCGGGTTCGG (double strand) [25688 site]” was tested. Which activity (% of IPPK2 ZFN activity) (ZFN 25688 (synthetic)) did it give?
A: 108

Q: “TGATCGCATCGGGCATCGGCGACTGATG (double strand) [25716 site]” was tested. Which activity (% of IPPK2 ZFN activity as printed) (ZFN 25716 (synthetic)) did it give?
A: 380

Q: With “TGGCAGTGGCAGTGGCACTGGCACGGCA (double strand) [25689 site]” as the sequence, how does the activity (% of IPPK2 ZFN activity) (ZFN 25689 (synthetic)) read?
A: 108
